Here are results for six molecules from patent US20140017242A1, “ANTI-BRADYKININ B2 RECEPTOR (BKB2R) MONOCLONAL ANTIBODY” (Diamedica, Inc., priority 2010, published 2014).

Substitutions are numbered along the chain they refer to. Where no end group is shown, it is not given here.

For orientation: Kd means the equilibrium constant for the complex coming apart. Broadly, the koff is the first-order rate constant of dissociation. As a reminder, the kon is a measure of how fast the partners come together.

For test [1], the system named is ZDF fa/fa rats. The test can be described thus: 21-day ZDF fa/fa study: oral glucose tolerance test (blood glucose, plasma insulin). In kind it is in vivo, rat. The conditions noted are these: 10 mg/kg p.o. 1×/daily, day 21. On the procedure: (§1) Animals. Male ZDF fa/fa rats were obtained from CRL (Kingston, N.Y.). Upon arrival, rats were seven weeks of age. The rats were housed individually per cage in a room with a photo cycle of 12 hours of light and 12 hours of dark and an ambient temperature of 70-72° F. and fed on regular rodent diet and water ad libitum. At the age of eleven weeks, rats were divided into six groups (Table 5) of eight rats per group based on fasting blood glucose levels. A sub-group of four rats per group was maintained in parallel to the main groups and was dosed similarly for twenty-one days for a hyperinsulinemic-euglycemic clamp study. […]
(§2) An oral glucose tolerance test (OGTT) was performed on Day 0, 7, 14 and 21 for each group of the study. Plasma samples were collected at each time point during OGTT to also measure insulin levels. Body weight, food and water intake were measured twice a week. Blood pressure and heart rates were monitored on Day 0, 7, 14 and 21 using a non-invasive tail cuff method (with five readings per rat taken and then averaged). Fasting serum samples were collected on Day 0, 7, 14 and 21 before OGTT for determination of triglyceride and total cholesterol level. Urine samples were collected on Day 7 and 14 for the determination of glycosuria. Glycated (Glycosylated) hemoglobin (HbA1c) was measured at the end of the study. Assay kits for these studies were as presented in Table 6, and were used according to the suppliers' instructions.
OGTTs were performed on Day 0, 7, 14 and Day 21. Rats were fasted overnight and fasted blood glucose levels were measured (t=0 min), and then each rat was given a single 1.5 ml dose of glucose solution (2 g/kg body weight of D-(+)-glucose (G7528, Sigma) solubilized in deionized water) administered by oral gavage. […] At each time point of an OGGT approximately 50-60 μl of blood were collected and processed for plasma to measure insulin levels.
Plasma Collection. On days 0, 7, 14 and 21 during an OGTT test, blood samples were collected from the rats at each time point (0, 15, 30, 60, 90 and 120 minutes) into tubes containing lithium heparin (BD Biosciences, USA) by tail nip and kept on ice. The samples were then centrifuged at 4° C. for plasma separation and the plasma supernatants were transferred into 0.5 ml Eppendorf™ tubes by pipette and stored at −80° C. for the analysis of insulin levels.

Test [2] deals with ZDF fa/fa rats. The test can be described thus: 21-day ZDF fa/fa study: fasting blood glucose. It is filed as in vivo, rat. The conditions noted are these: 10 mg/kg p.o. 1×/daily, day 21; baseline 116.5+/−25.8. On the procedure:
as §1, §2
Fasting blood glucose levels were measured on Day 0, 7, 14 and 21.
(§3) The mean change in fasting blood glucose (mg/dL), serum cholesterol (mg/dL) and systolic blood pressure (mm Hg) from baseline (Day 0) to Day 21 was compared between the high-dose (5F12G1, 0.2 mg/kg) and negative control (MG2b-57, 0.2 mg/kg) groups using an analysis of covariance to adjust for baseline levels. The mean HbA1c percentage in high-dose (5F12G1, 0.2 mg/kg) rats was compared to the mean HbA1c percentage for negative control (MG2b-57, 0.2 mg/kg) rats using an unequal-variance, independent two-sample t-test. A significance level of a=0.05 was used for all tests, and all analyses were conducted using SAS statistical software (vs. 9.2, Cary, N.C., U.S.A.).

Test [3] concerns ZDF fa/fa rats. The test can be described thus: 21-day ZDF fa/fa study: urinary glucose (glycosuria). In kind it is in vivo, rat. The conditions noted are these: 10 mg/kg p.o. 1×/daily, day 14.
The subject of test [4] is ZDF fa/fa rats. The test can be described thus: 21-day ZDF fa/fa study: serum total cholesterol and triglyceride. In kind it is in vivo, rat. The conditions noted are these: 10 mg/kg p.o. 1×/daily, day 21. On the procedure:
as §1, §2, §3

In test [5] the test system is ZDF fa/fa rats. The test can be described thus: 21-day ZDF fa/fa study: glycated hemoglobin HbA1c. In kind it is in vivo, rat. The conditions noted are these: 10 mg/kg p.o. 1×/daily, day 21. Here is the method:
as §1, §2
The mean change in fasting blood glucose (mg/dL), serum cholesterol (mg/dL) and systolic blood pressure (mm Hg) from baseline ([…]) and negative control (MG2b-57, 0.2 mg/kg) groups using an analysis of covariance to adjust for baseline levels. […] A significance level of a=0.05 was used for all tests, and all analyses were conducted using SAS statistical software (vs. 9.2, Cary, N.C., U.S.A.).

Test [6] has as its target T1, human BKB2R-derived epitope peptide (SEQ ID NO:73), PEG-biotin (human, also: PEG-biotin, site not given here).
T1 construct: also called immunogenic human BKB2R peptide fragment
T1 peptide: KEYSDEGHNVTAC
The test can be described thus: BLI (Octet), peptide-PEG-biotin on streptavidin sensor, antibody 500 nM. Here is the method:
(§4) For the Octet study, antibodies were analyzed by kinetic titration of the antibodies. Antibodies were prepared in kinetic buffer (0.001 M phosphate buffered saline (NaCl 0.0138 M; KCl-0.00027 M); pH 7.4, at 25° C., 0.1 mg/ml BSA, 0.002% Tween and 0.005% Sodium Azide) followed by 1:2 serial dilutions.
(§5) Sensor Prep: Streptavidin biosensors (FortéBio Inc, Menlo Park, Calif.) were coated by incubation in a solution containing a peptide ([…]-PEG-biotin) (Biosyn, Lewisville, Tex.) at 50 μg/ml (300 seconds/1000 rpm shaking). 96 well half-volume plates were used for testing. 90 μl of sample was plated per well. Sensors were allowed to equilibrate to baseline in kinetic buffer (60 seconds/1000 rpm). The sensors were then placed into the various antibody dilutions to allow binding (association) to the probe for 500 seconds/1000 rpm, and measurements were taken. The sensors were then moved into kinetic buffer without antibody for dissociation (500 seconds/1000 rpm), and measurements were taken. Octet system software calculated kinetic constants for on rate/off rate/affinity.
(§6) For test humanized monoclonal antibodies, the highest concentration used was 500 nM followed by 1:2 dilutions. Each concentration was tested twice. The HC and LC represented the mouse original 5F12G1 VH and VL sequences.
(In general: Biolayer interferometry detects binding as a change in optical thickness at a sensor tip.)

Test [7] deals with T1, human BKB2R-derived epitope peptide …. The test can be described thus: BLI (Octet), peptide-PEG-biotin on streptavidin sensor, antibody 250 nM. On the procedure:
as §4, §5, §6

Test [8] deals with ZDF fa/fa rats. The test can be described thus: Oral glucose tolerance test in ZDF fa/fa rats, humanized mAbs. It is filed as in vivo, rat. The settings on record: 0.2 mg/kg s.c.; order: H38/L39, H37/L38, L2/H2, H38/L38, H37/L37, H38/L38, H39/137 [sic], H39/L39, H37/L37, H39/L38, H37/L39, L1/H1. From the text:
This example describes evaluation of mouse mAb 5F12G1 and its twelve humanized clones in Zucker Diabetic fatty (ZDF fa/fa) rats for effects on insulin sensitivity in animals. Zucker Diabetic Rats develop symptoms similar to type 2 diabetes and are genetically resistant to insulin. […] Therefore, the Zucker rat is a good model to test the ability of the monoclonal antibody to increase insulin sensitivity, especially in an OGTT.
Male ZDF fa/fa rats were obtained from Charles River (Kingston, ON). Upon arrival, rats were ten weeks of age. The rats were housed individually per cage in a room with a photo cycle of 12 hours of light and 12 hours of dark and an ambient temperature of 70-72° F. and fed on regular rodent diet and water ad libitum. After seven days of acclimatization, rats were grouped into fourteen groups of three rats per group (Table 10).
Oral Glucose Tolerance Test. An oral glucose tolerance test (OGTT) was performed on overnight fasted (16 hours) rats. Rats received subcutaneously administered humanized mAbs, mouse mAb 5F12G1 (positive control) and PBS (vehicle control) at a dose of 0.2 mg/kg body weight, thirty minutes prior to glucose administration. D-Glucose was prepared in distilled water and administered orally at 2 g/kg body weight. Blood glucose levels were measured before administration of humanized mAbs, 5F12G1 or vehicle (t=−30 minutes) and just before glucose loading (0 minute), and at timepoints of 30, 60, 90 and 120 minutes, using Accu-chek™ glucose meter.

The target in test [9] is T2, human BKB2R-derived epitope peptide, SE ID NO:73 (Homo sapiens, UniProt P30411).
T2 construct: purchased Biosyn, Lewisville, Tex
The test can be described thus: ForteBio Octet binding kinetics to the BKB2R epitope peptide. On the procedure:
Proteins corresponding to all combinations of humanized or chimeric (5F12G1 VH and VL on human IgG2 backbone) antibodies were tested for binding to the human BKB2R-derived epitope peptide, SE ID NO:73.
A ForteBio (Menlo Park, Calif., USA) Octet® platform was used to analyze the binding affinities and binding characteristics of the humanized monoclonal antibodies to the peptide epitope (SEQ ID NO:73) and compared to the original mouse monoclonal 5F12G1. This platform employed label-free technology for measuring biomolecular interactions by optical analysis of the interference pattern of white light reflected from two surfaces: a layer of immobilized protein on the biosensor tip, and an internal reference layer. Any change in the number of molecules bound to the biosensor tip caused a shift in the interference pattern that was measured in real-time. Binding specificity, and rates of association and dissociation were monitored.
as §4, §5
[…] […] Each concentration was tested twice. The HC and LC represented the mouse original 5F12G1 VH and VL sequences.

With `N[C@@H](CC(=O)N1CCn2c(nnc2C(F)(F)F)C1)Cc1cc(F)c(F)cc1F` [sitagliptin, reference compound], in test [1], the “AUC of blood glucose during OGTT” value was 53765.75 ± 2281.45 mg/dL (min), the “blood glucose level at 30 minutes of the OGTT” value was determined as 488 mg/dL, the “blood glucose level at the start of the OGTT” value was 228 mg/dL and the fasting insulin level came out at 10 ± 3.5 ng/mL. For the same molecule, the “insulin level at 15 minutes of the OGTT” value in test [1] amounted to 15 ± 4 ng/mL. Also, the “fasting blood glucose level” value in test [2] came to 247 ± 14 mg/dL. Moreover, in [3], the urine glucose level entry was “elevated urine glucose”. Also, the serum cholesterol in test [4] amounted to 170 ± 14 mg/dL. Moreover, the “percent glycosylated hemoglobin A1c (HbA1c)” value in test [5] is 8.8+/−0.4%.

B1: humanized anti-BKB2R antibody L2/H1 (antibody, human IgG2, kappa, V domains shown)
VH: EVQLVESGGGLVQPGGSLRLSCAASGFTFSDYWMSWVRQAPGKGLEWVAEIRLKSDNYATHYAESVKGRFTISRDNAKNSLYLQMNSLRAEDTAVYYCTRDYYAMEYWGQGTLVTVSS
VL: DIVMTQSPLSLPVTPGEPASISCRSSQTIVHSNGKTYLEWYLQKPGQSPQLLIYKVSNRFSGVPDRFSGSGSGTEFTLKISRVEAEDVGVYYCFQASHVPYTFGQGTKLEIKR
Regarding B1, in test [6], the equilibrium dissociation constant (Kd) amounted to 4.19 nM, the “Max Response” value came out at 0.172, the koff was found to be 0.00507 s⁻¹ and the kon came out at 1.21e+06 M⁻¹ s⁻¹. In addition, in test [7], the Kd came to 20.3 nM, the “Max Response” value turned out to be 0.18, the koff came out at 0.00438 s⁻¹ and the kon is 216000 M⁻¹ s⁻¹.

B2: chimeric/humanized anti-BKB2R antibody L1/HC (antibody, human IgG2, V domains shown)
VH: EVKLEESGGGLVQPGGSMKLSCVVSGFTFSDYWMSWVRHSPEMGLEWVAEIRLKSDNYATHYAESVKGRFTISRDDSKSRLYLQINSLRGEDTGIYYCTRDYYAMEYWGQGTSVTVSS
VL: B1 VL with E75D
notes: not shown: human IgG2 constant region
For B2, in test [6], the Kd worked out at 3980 nM, the “Max Response” value turned out to be 0.194, the koff turned out to be 2.16 s⁻¹ and the kon worked out at 543000 M⁻¹ s⁻¹. Moreover, in test [7], the Kd worked out at 3040 nM, the “Max Response” value worked out at 0.148, the dissociation rate constant (koff) is 0.728 s⁻¹ and the kon is 239000 M⁻¹ s⁻¹.

B3: H38/L39: humanized anti-BKB2R mAb, heavy chain H38 (SEQ ID NO:6), light chain L39 (SEQ ID NO:12) (antibody, V domains shown)
VH: B1 VH with V5L, R19K, A24V, A49S, E64D, N76D, A77S, S80T
VL: DVVMTQTPLSLSVTPGQPASISCKSSQTIVHSNGKTYLEWYLQKPGQSPQLLIYKVSNRFSGVPDRFSGSGSGTDFTLKISRVEAEDVGVYYCFQASHVPYTFGQGTKLEIK
modifications: Humanized H38 Heavy Chain Variable Region VH; Humanized L39 Light Chain Region VL
On to B3, for which the “order of effect on the decrease in AUC of blood glucose” value in [8] is recorded as “higher”. Besides, in test [9] (Conc. 500 nM), the “kdis” value was determined as 106 s⁻¹ and the “kon” value was determined as 1.14e+09 M⁻¹ s⁻¹. In test [9] (Octet, epitope peptide), the “binding compared with the original mouse monoclonal antibody” value was “stronger binding (lower KD)”.

B4: humanized anti-BKB2R antibody L2/H2 (antibody, human IgG2, kappa, V domains shown)
VH: B1 VH with A23V, N76D
VL: B1 VL
notes: also called H2/L2
For B4, in test [6], the Kd is 22.5 nM, the “Max Response” value is 0.171, the koff was found to be 0.0223 s⁻¹ and the kon was 992000 M⁻¹ s⁻¹. In addition, in test [7], binding was put at a Kd of 20.4 nM, the “Max Response” value amounted to 0.171, the koff came out at 0.0359 s⁻¹ and the kon was 1.76e+06 M⁻¹ s⁻¹.

B5: chimeric/humanized anti-BKB2R antibody L2/HC (antibody, human IgG2, V domains shown)
VH: B2 VH
VL: B1 VL
notes: as for B2
For B5, in test [6], binding was put at a Kd of 4530 nM, the “Max Response” value came to 0.143, the koff was 0.655 s⁻¹ and the kon worked out at 145000 M⁻¹ s⁻¹. In test [7], the Kd was 337 nM, the “Max Response” value is 0.204, the koff came to 0.732 s⁻¹ and the on-rate constant (kon) stood at 2.17e+06 M⁻¹ s⁻¹.
